molecular target: CD46 (human) (UniProt P15529); assay: Kd of fiber knob to CD46, Table 1 (method not given)
Sequence of UniProt P15529 (P15529 35-343 limits assumed): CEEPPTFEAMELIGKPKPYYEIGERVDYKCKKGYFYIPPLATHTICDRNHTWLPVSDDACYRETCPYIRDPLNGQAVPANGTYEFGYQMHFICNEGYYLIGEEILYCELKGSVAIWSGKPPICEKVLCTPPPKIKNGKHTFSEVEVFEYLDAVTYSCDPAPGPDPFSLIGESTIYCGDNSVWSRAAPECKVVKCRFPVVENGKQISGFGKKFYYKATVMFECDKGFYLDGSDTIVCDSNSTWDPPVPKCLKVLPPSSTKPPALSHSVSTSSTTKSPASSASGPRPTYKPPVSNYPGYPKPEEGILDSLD

Row | Substance | Kd
1 | Ad11 (fiber knob) (from UniProt P33681) | 11.2 nM
2 | Ad35 fiber knob mutant A8: Ile192Val Ile256Val (from UniProt Q92854) | 13.7 nM
3 | Ad35 fiber knob mutant B4: Thr245Ala (from UniProt Q8NHJ6) | 7.64 nM
4 | Ad35 fiber knob mutant B5: Ile256Leu (from UniProt P46977) | 11 nM
